Assay: yeast display, Sf9 membrane polyspecificity reagent, FACS + sequencing; frameworks hold sequencing errors
In short: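 Galactose-induced (36–48 hours) yeast carrying a synthetic nanobody display library were exposed to 10% biotinylated, detergent-solubilized Sf9 membrane reagent at 4 °C for 1 hour. FACS followed streptavidin microbead enrichment, using low and high (top ~1%) gates for expression (anti-HA) and reagent binding (streptavidin). Colony PCR, MiSeq 2 × 250 sequencing and CDR-length filtering followed. Labels for polyreactivity reflect the gate of origin.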

Row | Sequence | polyreactivity (PSR sort gate)
1 | QVQLVESGGGLVQAGGSLRLSCAASGLIFRVNAMGWYRQAPGKERELVASISVSGGSTYYADSVKGRFTISRDNAKNTVYLQMNSLKPEDTAVYYCAASQYHKGYLFSYPYEYDYWGQGTQVTVSS | low polyreactivity
2 | QVQLVESGGGLVQAGGSLRLSCAASGLIFRWYAMGWYRQAPGKERELVAAISRRGGTTNYADSVKGRFTISRDNAKNTVYLQMNSLKPEDTAVYYCAADYQSVGGAEYDYWGQGTQVTVSS | high polyreactivity
3 | QVQLVESGGGLVQAGGSLRLSCAASGLIFRYKAMGWYRQAPGKERELVAAISRSRGTTYYADSVKGRFTISRDNAKNTVYLQMNSLKPEDTAVYYCATRISQSYYNYGYWGQGTQVTVSS | high polyreactivity
4 | QVQLVESGGGLVQAGGSLRLSCAASGLIFRYYAMGWYRQAPGKERELVAAISKSGGRTYYADSVKGRFTISRDNAKNTVYLQMNSLKPEDTAVYYCATGVRGYVGWSSALYYEYDYWGQGTQVTVSS | high polyreactivity
5 | QVQLVESGGGLVQAGGSLRLSCAASGLIFRYYAMGWYRQAPGKERELVATIRGGGSTYYADSVKGRFTISRDNAKNTVYLQMNSLKPEDTAVYYCAADPYSYGARGARGDYWGQGTQVTVSS | low polyreactivity
6 | QVQLVESGGGLVQAGGSLRLSCAASGLIFRYYAMGWYRQAPGKERELVAVISRRGDSTYYADSVKGRFTISRDNAKNTVYLQMNSLKPEDTAVYYCAAQAFVSYFKFRGGYWGQGTQVTVSS | high polyreactivity
7 | QVQLVESGGGLVQAGGSLRLSCAASGLIFSDNAMGWYRQAPGKEREFVASISDSGTTTYYADSVKGRFTISRDNAKNTVYLQMNSLKPEDTAVYDCNARPGQSGARFGYWGQGTQVTVSS | high polyreactivity
8 | QVQLVESGGGLVQAGGSLRLSCAASGLIFSGYAMGWYRQAPGKDRELVAAITWSGGRTYADSVKGRFTISRDNAKNTVYLQMNSLKPEDTAVYYCNADAYIDYWPYTWDYDYWGQGTQVTVSS | high polyreactivity
9 | QVQLVESGGGLVQAGGSLRLSCAASGLIFSPYAMGWYRQAPGKEREFVAAITSRGGTYYADSVKGRFTISRDNAKNTVYLQMNSLKPEDTAVYYCAAKSLYSKRQQYEYWGQGTQVTVSS | low polyreactivity
10 | QVQLVESGGGLVQAGGSLRLSCAASGLIFSRYAMGWYRQAPGKERELVAVISWSGGRTYYADSVKGRFTISRDNAKNTVYLQMNSLKPEDTAVYYCAARSYGGQGVRMDYWGQGTQVTVSS | high polyreactivity
11 | QVQLVESGGGLVQAGGSLRLSCAASGLIFSSNAMGWYRQAPGKERELVAAISRRGGNTYYADSVKGRFTISRDNAKNTVYLQMNSLKPEDTAVYYCAIRYVGRGTSYQDYYWGLGTQVTVSS | high polyreactivity
12 | QVQLVESGGGLVQAGGSLRLSCAASGLIFSSYVMGWYRQAPGKERELVAAISSKGGSTYYADSVKGRFTISRDNAKNTVYLQMNSLKPEDTAVYYCAARVYYPVRYGYWGQGTQVTVSS | high polyreactivity
13 | QVQLVESGGGLVQAGGSLRLSCAASGLIFSYNAMGWYRQAPGKERELVAAISYSGGSTYYADSVKGRFTNSRDNAKNTVYLQMNSLKPEDTAVYYCAAVWRRQGSAYVGSYGYDYWGQGTQVTVSS | high polyreactivity
14 | QVQLVESGGGLVQAGGSLRLSCAASGLIFSYNAMGWYRQAPGKERELVATIRRVGSTNYADSVKGRFTISRDNAKNTVYLQMNSLKPEDTAVYYCAARSLRYGRGMYYWGQGTQVTVSS | high polyreactivity
15 | QVQLVESGGGLVQAGGSLRLSCAASGLIFSYYAMGWYRQAPGKERELVAAIDWISGSTYYADSVKGRFTISRDNAKNTVYLQMNSLKPEDTAVYYCAAYGSFWYAGFGYWGQGTQVTVSS | low polyreactivity
16 | QVQLVESGGGLVQAGGSLRLSCAASGLIFSYYAMGWYRQAPGKERELVAAITGSGGTTYYADSVMGRFTISRDNANNTVYLQMNSLKPEDTAVYYCATPPPEVWQRWYREYDYWGQGTQVTVSS | low polyreactivity
17 | QVQLVESGGGLVQAGGSLRLSCAASGLIFTNNAMGWYRQAPGKERELVAGINSGGRTNYADSVKGRFTISRDNAKNTVYLQKNSLKPEDTAVYYCAARWWVKSRPNRYNYWGQGTQVTVSS | high polyreactivity
18 | QVQLVESGGGLVQAGGSLRLSCAASGLIFTPYAMGWYRQAPGKERELVAAISVSGGRTYYADSVKGRFTISRDNAKNTVYLQMNSLKPEDTAVYYCAASDRYGGRDYWGQGTQVTVSS | high polyreactivity
19 | QVQLVESGGGLVQAGGSLRLSCAASGLIFTRNFMGWYRQAPGKERELVAAITSGGSTYYADSVKRRFTISRDNAKNTVYLQMNSLNPEDTADYYCAAGCDYLLSTVRFDYWGQGTQVTVSS | high polyreactivity
20 | QVQLVESGGGLVQAGGSLRLSCAASGLIFTTNAMGSYRQAPGKEREFVAAISPSGGSTYYADSVKGRFTISRDNAKNTVYLQMNRLKPEDTAVYYCAARYSPVWHKYYYWGQGTQVTVSS | high polyreactivity
21 | QVQLVESGGGLVQAGGSLRLSCAASGLIFTWYAMGWYRQAPGKERELVADISWSDDSTNYADSVKGRFTISRDNAKNTVYLQMNSLKPEDTAVYYCATQLDYGGRVGDADDYWGQGTQVTVSS | low polyreactivity
22 | QVQLVESGGGLVQAGGSLRLSCAASGLIFTYYAMGWYRQAPGKERELVAAINYSGGSTYYADSVKGRFTISRDNAKNTVYLQMNSLKPEDTAVYYCAARRVTQTEGPMGYWGQGTQVTVSS | low polyreactivity

Row | Sequence | polyreactivity (PSR sort gate)
23 | QVQLVESGGGLVQAGGSLRLSCAASGLIFTYYAMGWYRQAPGKERELVAAITSGGSTNYADSVKGRFTISRDNAKYTVYLQMNSLKPEDTAVYYCAADYDTGSERYEYWGQGSQVTVSS | low polyreactivity
24 | QVQLVESGGGLVQAGGSLRLSCAASGLIFVAYAMGWYRQAPGKERELVAAISRSGGSTYYADSVKGRFTISRDNAKNTVYLQMNRLKPEDTAVYFCAKYYGARHVDDDYWGQGTQVTVSS | high polyreactivity
25 | QVQLVESGGGLVQAGGSLRLSCAASGLIFVDNAMGWYRQAPGKERELVAAIDSGGSTNYADSVKGRFTISRDNAKNTVYLQMNSLKPEDTAVYYCAADWIYAPWYYQESVEYYYWGQGTQVTVSS | low polyreactivity
26 | QVQLVESGGGLVQAGGSLRLSCAASGLIFVFNTLGWYRQAPGKEMELVAVITSGGSTNYADSVKGRFTISSDNEKNTVYLQMISLKPEDTAVYYCNVDRQVITGRYIGDYWGEGTQVTVSS | low polyreactivity
27 | QVQLVESGGGLVQAGGSLRLSCAASGLIFVGYAMGWYRQAPGKERELVAAITSGGSTKYADSVKGRFTISRDNAKNTVYLQMNSLKAEDTAVYYCAASGWRNWWSARNYYWGQGTQVTVSS | low polyreactivity
28 | QVQLVESGGGLVQAGGSLRLSCAASGLIFVGYAMGWYRQAPGKERELVAAITSGGSTKYADSVKGRFTISRDNAKNTVYLQMNSLKPEDTAVYYCAASGWRNWWSARNYYWGQGTLVTVSS | low polyreactivity
29 | QVQLVESGGGLVQAGGSLRLSCAASGLIFVGYAMGWYRQSPGKERELVAAITSGGSTKYADSVKGRVTISRDNAKNTDYLQMNSLKPEDTAVYYCADSGCRNWWSARNYYWGQGTQVTVSS | low polyreactivity
30 | QVQLVESGGGLVQAGGSLRLSCAASGLIFVHYAMGWYRQAPGKEREFVAAITWSGGSKYYADSVKGRFTISRDNAKNTVYLQMNSLKPEDTAVYYCAVDGFRPGTASFGYWGQGTQVTVSS | low polyreactivity
31 | QVQLVESGGGLVQAGGSLRLSCAASGLIFVQYVMGWYRQAPGKERELVAAITEDGNTYYADSVKGRFTISRDNAKNTVYLQMNSLKPEDTAVYYCNAVLRSYDFWTGYGYWGQGTQVTVSS | low polyreactivity
32 | QVQLVESGGGLVQAGGSLRLSCAASGLIFVTNAMGGYRQAPGKERELVAAITRSGGSTYYADSVKGRFTISRDNAKNTVYLQMNSLKQEDTAVYYCATGFHYAYGYWGQGTQVTVSS | low polyreactivity
33 | QVQLVESGGGLVQAGGSLRLSCAASGLIFVWYAMGWYRQAPGKEREVVAAITSRGGSTYYADSVKGRFTISRDNAKNTVYLQMNSLKPEDTAVYYCAKYVRYDLGDYWGQGTQVTVSS | low polyreactivity
34 | QVQLVESGGGLVQAGGSLRLSCAASGLIFVYNSMGWYRQAPGKERELVAGITSGGSTNYADSVKGRFTISRDNAKNTVYLQMNSLKPEDTAVYYCAAGYYDLYLWWGYDYWGQGTQVTVSS | high polyreactivity
35 | QVQLVESGGGLVQAGGSLRLSCAASGLIFWKYAMGWYRQAPGKEREFVAAITYGGGGTYYADSVKGRFTISRDNAKNTVYFQMNSLKPEDTAVYYWAKRRYYYKGRVSYRQYGYWGQGTQVTVSS | high polyreactivity
36 | QVQLVESGGGLVQAGGSLRLSCAASGLIFWYYAMGWYRQAPGKERELVAAINKIGGSTYYADSVKGRFTISRDNAKNTVYLQMNSLKPEDTAVYYCAADAPYYPVRRYYYWGQGTQVTVSS | low polyreactivity
37 | QVQLVESGGGLVQAGGSLRLSCAASGLIFYDNMGWYRQAPGKERELVAAISSSGGSTSYADSVKGRFTISRDNAKNTVYLQMNSLKPEDTAVYYCAADQYYYWYTHQSIGYDYWGQGTQVTVSS | low polyreactivity
38 | QVQLVESGGGLVQAGGSLRLSCAASGLIFYGNAMGWYRQAPGKERELVAAISRRGGRTYYADSVKGRFTISRDKAKNTVYLQMKSLKPEDTAVYYCAADVIYSGDYWGQGTQVTVSS | high polyreactivity
39 | QVQLVESGGGLVQAGGSLRLSCAASGLIFYINAMGWYRQAPGKERELVAVISGGGSTNYADSVKGRFTISRDNAKNTVYLQMNSLKPEDTAVYYCNARRSHSYRHYDYWGQGTQVTVSS | low polyreactivity
40 | QVQLVESGGGLVQAGGSLRLSCAASGLIFYKYAMGWYRQAPGKEREFVAAISGSGGSTYYADSVKGRFTISRDNAKNTVYLQMNSLKPEDTAVYYCAVRQRYGPARYDYWGQGTQVTVSS | high polyreactivity
41 | QVQLVESGGGLVQAGGSLRLSCAASGLIFYKYAMGWYRQAPGKERELVAAITSGGSTNYADSVKGRFTISRDNAKNTVYLQMNSLKPEDTAVYYCNADYHPYLVVRWWYPPVDYWGQGNQVTVSS | low polyreactivity
42 | QVQLVESGGGLVQAGGSLRLSCAASGLIFYRNALGWYRQEPGKERELVATISRRGGRTYYADSVKGRFTISRDNAKNTVYLQMNSLNPEDTAVYYCNADDYSSRGGYDSWGQGTQVTVSS | high polyreactivity
43 | QVQLVESGGGLVQAGGSLRLSCAASGLIFYRNAMGWYRQAPGKERELVAAISKNGGNTYYADSVKGRFTISRDNAKNTVFLQMNSLKTEDTAVYYCAARELYGPFGYWGQGTQVTVSS | high polyreactivity

Reference: the nanobody polyreactivity screen of Harvey et al. (2022)
